# Measurements taken from patent publication US20210261663A1 (JIANGSU HENGRUI MEDICINE, published 2021).
# Target: T1, human TIM-3 full-length, overexpressed on CHO-S cells (human, UniProt Q8TDQ0 22-301)
# T1 construct: also called HAVCR2; Tim-3 overexpressing CHO-S cells
# Assay: cell-based ELISA on fixed CHO-S cells overexpressing full-length human TIM-3, HRP secondary antibody, OD450
binder,measurement,value
"ABTim-3 (antibody, V domains shown) VH: QVQLQQPGAELVKPGASVKMSCKASGYTFTSYNMHWIKQTPGQGLEWIGDIYPGNGDTSYNQKFKGKATLTADKSSSTVYMQLSSLTSEDSAVYYCARVGGAFPMDYWGQGTSVTVSS VL: DIVLTQSPASLAVSLGQRATISCRASESVEYYGTSLMQWYQQKPGQPPKLLIYAASNVESGVPARFSGSGSGTDFSLNIHPVEEDDIAIYFCQQSRKDPSTFGGGTKLEIK",EC50 (read off the curve),~0.1 nM
